Our source for the induced presynaptic differentiation in rat hippocampal neurons co-cultured with COS-7 cells expressing mouse TrkC TM, with heparin-dp10 (30 μg/ml, ~10 μM) against mock and Kd values is publication PMC4239663, “Structural basis for extracellular cis and trans RPTPσ signal competition in synaptogenesis” (Nature Communications, 2014).

Experiment [1] deals with human RPTPσ Ig1–3 (human).
Experiment [2] deals with human RPTPσ Ig1–3 WT, C-terminal Avitag, immobilized (human). As to the kind of experiment: SPR; equilibrium; biotinylated human RPTPσ Ig1–3 (wild type or mutants) immobilized on streptavidin-coated CM5 chips, mouse TrkC LRRIg1 as analyte; 10 mM HEPES pH 7.5, 150 mM NaCl, 0.01% Tween 20, 25 °C.
Experiment [3] has as its target human RPTPσ Ig1–3 R227A+R228A (R228A+R229A in human numbering), C-terminal Avitag (human). The experiment is described as above.
In experiment [4] the target is mouse TrkC LRRIg1, C-terminal Avitag, immobilized (mouse) (UniProt Q6VNS1). As to the kind of experiment: SPR; equilibrium; biotinylated mouse TrkC LRRIg1 (wild type or D240A+D242A) immobilized on streptavidin-coated CM5 chips, human RPTP proteins as analytes; 10 mM HEPES pH 7.5, 150 mM NaCl, 0.01% Tween 20, 25 °C; in Fig. 6a also with increasing HS or heparin-dp10.
The target of experiment [5] is T1, mouse TrkC LRRIg1 2Q (Mus musculus).
T1 chain: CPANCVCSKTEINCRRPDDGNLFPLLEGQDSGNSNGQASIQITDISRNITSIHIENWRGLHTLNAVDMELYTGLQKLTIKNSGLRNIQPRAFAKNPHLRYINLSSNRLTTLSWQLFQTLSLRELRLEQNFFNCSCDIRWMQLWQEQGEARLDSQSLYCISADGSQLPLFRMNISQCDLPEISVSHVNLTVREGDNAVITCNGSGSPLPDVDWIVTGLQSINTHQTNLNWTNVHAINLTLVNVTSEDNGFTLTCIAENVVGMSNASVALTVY
In words: SPR.

In experiment [6] the target is T2, mouse TrkC LRRIg1 (soluble) (mouse, UniProt Q6VNS1 32-302).
T2 chain: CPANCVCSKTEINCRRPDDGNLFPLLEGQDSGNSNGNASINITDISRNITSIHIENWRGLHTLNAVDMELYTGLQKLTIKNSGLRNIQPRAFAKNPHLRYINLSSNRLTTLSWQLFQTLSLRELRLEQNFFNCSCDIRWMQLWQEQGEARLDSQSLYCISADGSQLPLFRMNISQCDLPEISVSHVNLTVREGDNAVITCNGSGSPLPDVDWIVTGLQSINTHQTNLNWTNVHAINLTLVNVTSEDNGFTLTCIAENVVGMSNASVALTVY
As to the kind of experiment: SPR.

The target of experiment [7] is chicken RPTPσ Ig1–3 (chicken, UniProt F1NWE3 29-316). As to the kind of experiment: SPR; equilibrium; biotinylated chicken TrkC LRRIg1 variants immobilized on streptavidin-coated CM5 chips, chicken RPTPσ Ig1–3 as analyte; 10 mM HEPES pH 7.5, 150 mM NaCl, 0.01% Tween 20, 25 °C; 1 M MgCl2 regeneration for LRRIg1 2Q. The conditions noted are these: both partners purified.

Experiment [8] has as its target chicken TrkC LRRIg1 2N, C-terminal Avitag, immobilized (chicken, UniProt Q91044 32-302, N163Q | N232Q | N259Q | N267Q | N294Q, biotin on the Avitag (enzymatic)). As to the kind of experiment: SPR.

Several values for one entry are separate records, joined by “and”; a condition that tells them apart may be missing. Equal entries are not always repeated.

In turn, “mouse TrkC LRRIg1, C-terminal Avitag, immobilized (from UniProt Q6VNS1 32-302) (domain or fragment)” returned an induced presynaptic differentiation in rat hippocampal neurons co-cultured with COS-7 cells expressing mouse TrkC TM, with heparin-dp10 (30 μg/ml, ~10 μM) against mock in experiment [1] of 2 fold.

Take “mouse TrkC LRRIg1 (soluble) (from UniProt Q6VNS1 32-302) (domain or fragment)”: the Kd in experiment [2] came to 1.8 µM; in experiment [3], 7 µM.

B1: human RPTPσ Ig1–3 (domain or fragment)
chain: EEPPRFIKEPKDQIGVSGGVASFVCQATGDPKPRVTWNKKGKKVNSQRFETIEFDESAGAVLRIQPLRTPRDENVYECVAQNSVGEITVHAKLTVLREDQLPSGFPNIDMGPQLKVVERTRTATMLCAASGNPDPEITWFKDFLPVDPSASNGRIKQLRSGALQIESSEETDQGKYECVATNSAGVRYSSPANLYVRVRRVAPRFSILPMSHEIMPGGNVNITCVAVGSPMPYVKWMQGAEDLTPEDDMPVGRNVLELTDVKDSANYTCVAMSSLGVIEAVAQITVKSLPKA
For the molecule B1, the figures for the Kd in experiment [4] and in experiment [5] were 0.258 µM and 0.14 µM, respectively.

B2: human RPTPσ Ig1–3 WT, C-terminal Avitag, immobilized (domain or fragment)
chain: EEPPRFIKEPKDQIGVSGGVASFVCQATGDPKPRVTWNKKGKKVNSQRFETIEFDESAGAVLRIQPLRTPRDENVYECVAQNSVGEITVHAKLTVLREDQLPSGFPNIDMGPQLKVVERTRTATMLCAASGNPDPEITWFKDFLPVDPSASNGRIKQLRSGALQIESSEETDQGKYECVATNSAGVRYSSPANLYVRVRRVAPRFSILPMSHEIMPGGNVNITCVAVGSPMPYVKWMQGAEDLTPEDDMPVGRNVLELTDVKDSANYTCVAMSSLGVIEAVAQITVKSLPKA
modifications: biotin on the Avitag (enzymatic)
As to B2, the Kd in experiment [6] is 0.58 µM and 0.551 µM.

B3: human RPTPσ Ig1–3 ΔK (K68A+K69A+K71A+K72A) (domain or fragment)
chain: EEPPRFIKEPKDQIGVSGGVASFVCQATGDPKPRVTWNAAGAAVNSQRFETIEFDESAGAVLRIQPLRTPRDENVYECVAQNSVGEITVHAKLTVLREDQLPSGFPNIDMGPQLKVVERTRTATMLCAASGNPDPEITWFKDFLPVDPSASNGRIKQLRSGALQIESSEETDQGKYECVATNSAGVRYSSPANLYVRVRRVAPRFSILPMSHEIMPGGNVNITCVAVGSPMPYVKWMQGAEDLTPEDDMPVGRNVLELTDVKDSANYTCVAMSSLGVIEAVAQITVKSLPKA
B3: binding in experiment [6] was characterised by a dissociation constant (Kd) of 2.8 µM.

B4: chicken TrkC LRRIg1cryst, C-terminal Avitag, immobilized (domain or fragment, UniProt Q91044 32-302, looked up)
chain: CPANCLCSKTDINCKKPDDGNLFPLLEGQDSRNITSIHIENWKNLQTLNAVDMELYTGLQRLTIRNSGLRNIQPRAFAKNPHLRYIDLSGNRLTTLSWQLFQTLRLFDLRLERNPFQCSCDIRWIQLWQEKGEANLQSQQLHCMNLDTAVILLRNMNITQCDLPEISVSHVNLTVREGENAVITCQGSGSPLPDVDWTVADLHSINTHQTNLQWTNVHAIQLTLVNVTSEDNGFLLTCIAENVVGMSQASVLLTVY
modifications: biotin on the Avitag (enzymatic)
notes: chicken TrkC LRRIg1, amino acids 32–302 of NCBI NM_205169.1, lacking residues 63–77; not shown: Avitag (BirA recognition site), C-terminal, kept
With B4, the Kd in experiment [7] is 4.8 µM.

B5: chicken RPTPσ Ig1-3 ΔK (protein)
chain: ESPPVFIKKPVDQIGVSGGVASFVCQATGDPKPRVTWNAAGAAVNSQRFETIEFDESAGAVLRIQPLRTPRDENIYECVAQNPHGEVTVHAKLTVLREDQLPPGFPNIDMGPQLKVVERTRTATMLCAASGNPDPEITWFKDFLPVDPSTSNGRIKQLRSGGLQIESSEETDQGKYECVASNSAGVRYSSPANLYVRVRRVAPRFSILPVSHEIMPGGNVNITCVAVGSPMPYVKWMQGAEDLTPEDDMPVGRNVLELTDVKDSANYTCVAMSSLGVIEAVAQITVKS
As for B5, binding in experiment [8] was characterised by a dissociation constant (Kd) of 2.6 µM.

B6: chicken TrkC LRRIg1 2N, C-terminal Avitag, immobilized (domain or fragment, UniProt Q91044 32-302, looked up)
chain: CPANCLCSKTDINCKKPDDGNLFPLLEGQDSGSSNGNTSINITDISRNITSIHIENWKNLQTLNAVDMELYTGLQRLTIRNSGLRNIQPRAFAKNPHLRYIDLSGNRLTTLSWQLFQTLRLFDLRLERNPFQCSCDIRWIQLWQEKGEANLQSQQLHCMNLDTAVILLRNMNITQCDLPEISVSHVNLTVREGENAVITCQGSGSPLPDVDWTVADLHSINTHQTNLQWTNVHAIQLTLVNVTSEDNGFLLTCIAENVVGMSQASVLLTVY
modifications: biotin on the Avitag (enzymatic)
notes: chicken TrkC LRRIg1, amino acids 32–302 of NCBI NM_205169.1, residues 63–77 re-added to LRRIg1cryst; not shown: Avitag (BirA recognition site), C-terminal, kept
In the case of B6, the Kd in experiment [7] came out at 0.216 µM.

B7: chicken TrkC LRRIg1 2Q, C-terminal Avitag, immobilized (domain or fragment, UniProt Q91044 32-302, looked up)
chain: CPANCLCSKTDINCKKPDDGNLFPLLEGQDSGSSNGQTSIQITDISRNITSIHIENWKNLQTLNAVDMELYTGLQRLTIRNSGLRNIQPRAFAKNPHLRYIDLSGNRLTTLSWQLFQTLRLFDLRLERNPFQCSCDIRWIQLWQEKGEANLQSQQLHCMNLDTAVILLRNMNITQCDLPEISVSHVNLTVREGENAVITCQGSGSPLPDVDWTVADLHSINTHQTNLQWTNVHAIQLTLVNVTSEDNGFLLTCIAENVVGMSQASVLLTVY
modifications: biotin on the Avitag (enzymatic)
notes: chicken TrkC LRRIg1, amino acids 32–302 of NCBI NM_205169.1, residues 63–77 re-added with N68Q+N72Q; not shown: Avitag (BirA recognition site), C-terminal, kept
For the molecule B7, the Kd in experiment [7] is 0.038 µM.

B8: RPTPσ with the meB mini-exon inserted between R225 and V226 (domain or fragment)
chain: EEPPRFIKEPKDQIGVSGGVASFVCQATGDPKPRVTWNKKGKKVNSQRFETIEFDESAGAVLRIQPLRTPRDENVYECVAQNSVGEITVHAKLTVLREDQLPSGFPNIDMGPQLKVVERTRTATMLCAASGNPDPEITWFKDFLPVDPSASNGRIKQLRSGALQIESSEETDQGKYECVATNSAGVRYSSPANLYVRELREVRRVAPRFSILPMSHEIMPGGNVNITCVAVGSPMPYVKWMQGAEDLTPEDDMPVGRNVLELTDVKDSANYTCVAMSSLGVIEAVAQITVKSLPKA
B8: binding in experiment [6] was put at a Kd of 4.8 µM.

B9: chicken RPTPσ Ig1–3, C-terminal Avitag, immobilized (domain or fragment)
chain: ESPPVFIKKPVDQIGVSGGVASFVCQATGDPKPRVTWNKKGKKVNSQRFETIEFDESAGAVLRIQPLRTPRDENIYECVAQNPHGEVTVHAKLTVLREDQLPPGFPNIDMGPQLKVVERTRTATMLCAASGNPDPEITWFKDFLPVDPSTSNGRIKQLRSGGLQIESSEETDQGKYECVASNSAGVRYSSPANLYVRELREVRRVAPRFSILPVSHEIMPGGNVNITCVAVGSPMPYVKWMQGAEDLTPEDDMPVGRNVLELTDVKDSANYTCVAMSSLGVIEAVAQI
modifications: biotin on the Avitag (enzymatic)
In turn, B9 returned a Kd in experiment [8] of 2.5 µM.
